Measurements taken from patent US20060121022A1 (Chugai, published 2006).
Numbering of substitutions follows the chain as printed.

Assays:
[1] = target: T1, recombinant PCI (with Flag tag) (UniProt P05154)
T1 sequence: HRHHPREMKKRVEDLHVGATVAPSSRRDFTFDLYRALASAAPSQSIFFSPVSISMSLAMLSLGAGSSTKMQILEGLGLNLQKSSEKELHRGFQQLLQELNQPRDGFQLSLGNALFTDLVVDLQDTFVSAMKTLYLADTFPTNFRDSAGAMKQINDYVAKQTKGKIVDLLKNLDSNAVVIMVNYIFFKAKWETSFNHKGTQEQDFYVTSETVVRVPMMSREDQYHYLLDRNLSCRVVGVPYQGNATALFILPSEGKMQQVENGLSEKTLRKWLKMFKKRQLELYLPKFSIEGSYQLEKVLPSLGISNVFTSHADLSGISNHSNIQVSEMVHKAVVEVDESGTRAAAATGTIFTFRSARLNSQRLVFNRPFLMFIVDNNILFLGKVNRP

[2] = target: activated protein C (aPC; protein C from human plasma, activated, SIGMA P-2200) (human, UniProt P04070 43-461); experiment: cell-based or functional assay
Sequence of activated protein C (aPC; protein C from human plasma, activated, SIGMA P-2200) (P04070 43-461): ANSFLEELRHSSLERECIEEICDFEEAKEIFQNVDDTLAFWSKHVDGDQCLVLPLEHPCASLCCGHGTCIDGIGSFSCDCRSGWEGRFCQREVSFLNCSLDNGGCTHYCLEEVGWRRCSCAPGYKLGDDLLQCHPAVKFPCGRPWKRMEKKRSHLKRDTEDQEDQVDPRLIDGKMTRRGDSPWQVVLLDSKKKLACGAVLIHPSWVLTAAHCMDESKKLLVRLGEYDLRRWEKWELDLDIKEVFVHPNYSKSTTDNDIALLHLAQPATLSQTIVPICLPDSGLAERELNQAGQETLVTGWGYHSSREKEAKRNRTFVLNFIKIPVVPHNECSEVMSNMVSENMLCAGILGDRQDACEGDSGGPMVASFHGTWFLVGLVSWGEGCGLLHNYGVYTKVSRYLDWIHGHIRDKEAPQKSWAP

activated protein C (aPC; protein C from human plasma, activated, SIGMA P-2200)
absorbance (at 405 nm), substrate S-2366; CONTROL (aPC with PCI, no antibody), AVERAGE (absorbance at 405 nm) [1]: 0.262 | absorbance (at 405 nm), substrate S-2366; CONTROL (aPC with PCI, no antibody), first replicate (absorbance at 405 nm) [1]: 0.278 | absorbance (at 405 nm), substrate S-2366; CONTROL (aPC with PCI, no antibody), second replicate (absorbance at 405 nm) [1]: 0.245

B1: anti-aPC antibody aPC#79 (hybridoma well No. 79) (antibody, IgG2b, V domains shown)
VH: QVQLQQSGAELARPGASVKLSCKASGYTFTDSYMNWVKQRTGQGLEWIGEVYPETGNSYYNEKFKGKATLTADRSSKTAYMQLNSLTSEDSAVYFCTRGGTGFDYWGQGTTLTVSS
VL: QIVLAQSPAIMSASLGERVTMTCTASSSVSSSYLHWYQQKPGSSPKAWIYSTSNLASGAPTRFSGSGSGTSYSLTISSMEAEDAATYYCHQYHRSPFTFGSGTKLEIK
…ON SUPPRESSION RATE (%), EXPERIMENT 1 (APTT coagulation time, human plasma) [2]: 88% | …ON SUPPRESSION RATE (%), EXPERIMENT 2 (APTT coagulation time, human plasma) [2]: 68.3%

B2: anti-aPC antibody aPC#123 (hybridoma well No. 123) (antibody, IgG2b, V domains shown)
VH: QVQLQQSGPELVKPGASVKISCKASGYAFSSSWMNWVKQRPGQGLEWIGRIYPGDGDTNYNGKFRGKATLTADKSSSTAYMQLTSLTSVDSAVYFCARWGITTAAWFAYWGQGTLVTVSA
VL: DIQMTQSPASLSASVGETVTITCRTSENIYSYLAWYQQKQGKSPQLLVNNAKTLAEGVPSRFSGSGSGTQFSLKINSLQPEDFGTYYCQHYYGTPPTFGGGTKLEIK
…ON SUPPRESSION RATE (%), EXPERIMENT 1 (APTT coagulation time, human plasma) [2]: 23.4% | …ON SUPPRESSION RATE (%), EXPERIMENT 2 (APTT coagulation time, human plasma) [2]: 20.7%

B3: anti-aPC antibody aPC#281 (hybridoma well No. 281) (antibody, IgG1, V domains shown)
VH: QIQLVQSGPELEKPGETVRISCKASGYTFTDYSLHWVKQAPGKGLKWMGWINTETGEPTYADDLKGRFAFSLETSATTAYLQINNLKNEDTATYFCARGITLDYWGQGTSLTVSS
VL: DNVMSQSPSSLAVSVGEKVTMSCKSSQSLLSSSNQKNFLAWYQQKPGQSPKLLISWASTRHSGVPDRFTGSGSGTDFTLTISSVNAEDLAVYYCQQYYRYPLTFGAGTKLELK
…ON SUPPRESSION RATE (%), EXPERIMENT 1 (APTT coagulation time, human plasma) [2]: 33.8% | …ON SUPPRESSION RATE (%), EXPERIMENT 2 (APTT coagulation time, human plasma) [2]: 21.6%

B4: anti-aPC antibody aPC#285 (hybridoma well No. 285) (antibody, IgG1, V domains shown)
VH: QVQLQQSGSEVVKPGASVKISCKASGYAFSRSWMNWVKQRPGQGLEWIGRIYPGDGDSIYNGKFKGKATLTADKSSTTAYMHLNSLTSVDSAVYFCARWGSSGSSWFAYWGQGTLVTVSA
VL: B2 VL with V15M, Q37R, N49Y, K74R, T85S, Y87F, T94S, P96Y
…ON SUPPRESSION RATE (%), EXPERIMENT 1 (APTT coagulation time, human plasma) [2]: 24.5% | …ON SUPPRESSION RATE (%), EXPERIMENT 2 (APTT coagulation time, human plasma) [2]: 28.2%
